Molecular target: T1, integrin ανβ3 on K562 integrin ανβ3-overexpressing cells (UniProt P06756 31-1048; P05106 27-788)
T1 construct: whole, on cells; Heterodimer overexpressed on K562 cells; Parental K562 cells served as the comparison; also called K562 integrin ανβ3 cells
Assay: FACS on K562 integrin ανβ3-overexpressing cells, 100 nM antibody with 300 IU/ml heparin
Description: Specifically, each of a K562 cell line and a K562 integrin ανβ3-overexpressing cell line was added to 1.5 ml at a density of 2×10⁵ cells, then washed twice with washing buffer (pH 7.4 PBS, 2% FBS). […] The cells were washed twice with washing buffer, and then stained with an Alexa488 (green fluorescence)-labeled antibody (Invitrogen) that specifically recognizes human IgG, at 4° for 1 hour. Next, the cells were washed twice with washing buffer, and analyzed by FACS.

B1: RGD10 peptide-fused anti-Ras•GTP iMab RT11 (antibody, V domains shown)
VH: EVQLVESGGGLVQPGGSLRLSCAASGFTFSSYSMSWVRQAPGKGLEWVSYISRTSHTTYYADSVKGRFTISRDNSKNTLYLQMNSLRAEDTAVYYCARGFFMDYWGQGTLVTVSS
VL: DLVMTQSPSSLSASVGDRVTITCKSSQSLFNSRTRKNYLAWYQQKPGKAPKLLIYWASTRESGVPSRFSGSGSGTDFTLTISSLQPEDFATYYCQQYYYHMYTFGQGTKVEIKR
notes: also called RGD10-RT11; RGD10 peptide-fused RT11
binding result: binds

From patent US20170158777A1 (ORUM THERAPEUTICS, published 2017)
